Data reported in patent US20190218292A1.

What was measured:
[1] = molecular target: human CD64 receptor (hFcγRI) (human) (UniProt P12314); experiment: ELISA, coated hCD64, 0.5 µg/ml
[2] = molecular target: FcRn receptor (recombinant protein human FcRnα and β2-microglobulin) (human) (UniProt P55899); experiment: ELISA at pH 6, coated FcRn
hCD32b (human) [3] = molecular target: hCD32b (human) (UniProt P31994); experiment: ELISA, coated hCD32b, IgG aggregated with anti-CK F(ab')2-HRP
[4] = molecular target: FcRn receptor (recombinant protein human FcRnα and β2-microglobulin) (human) (UniProt P55899); experiment: ELISA at pH 6, coated FcRn, 10 µg/ml
hCD32aR (human) [5] = molecular target: hCD32aR (human) (UniProt P12318); experiment: ELISA, coated hCD32aR, 0.5 µg/ml
[6] = molecular target: human PD1 antigen (recombinant protein) (human) (UniProt Q15116); experiment: ELISA, coated human PD1
[7] = molecular target: murine PD1 antigen (murine) (UniProt Q02242); experiment: ELISA, coated murine PD1
[8] = molecular target: cynomolgus monkey PD1 antigen (cynomolgus monkey) (UniProt B0LAJ3); experiment: ELISA, coated cynomolgus PD1, 0.2 µg/ml
hCD32aH (human) [9] = molecular target: hCD32aH (human) (UniProt P12318); experiment: ELISA, coated hCD32aH, 0.5 µg/ml
hCD16aV (human) [10] = molecular target: hCD16aV (human) (UniProt P08637); experiment: ELISA, coated hCD16aV, IgG aggregated with anti-CK F(ab')2-HRP
hCD32aR (human) [11] = molecular target: hCD32aR (human) (UniProt P12318); experiment: ELISA, coated hCD32aR, IgG aggregated with anti-CK F(ab')2-HRP
hCD16aV (human) [12] = molecular target: hCD16aV (human) (UniProt P08637); experiment: ELISA, coated hCD16aV, 0.5 µg/ml
hCD32b (human) [13] = molecular target: hCD32b (human) (UniProt P31994); experiment: ELISA, coated hCD32b, 0.5 µg/ml
hCD32aH (human) [14] = molecular target: hCD32aH (human) (UniProt P12318); experiment: ELISA, coated hCD32aH, IgG aggregated with anti-CK F(ab')2-HRP
[15] = molecular target: cynomolgus monkey PD1 antigen (cynomolgus monkey) (UniProt B0LAJ3); experiment: ELISA, coated cynomolgus PD1
[16] = molecular target: human PD1 antigen (recombinant protein) (human) (UniProt Q15116); experiment: ELISA, coated human PD1, 0.2 µg/ml
[17] = molecular target: human CD64 receptor (hFcγRI) (human) (UniProt P12314); experiment: ELISA, coated hCD64

Sequence of human PD1 antigen (recombinant protein) (human) (Q15116 25-167 limits assumed): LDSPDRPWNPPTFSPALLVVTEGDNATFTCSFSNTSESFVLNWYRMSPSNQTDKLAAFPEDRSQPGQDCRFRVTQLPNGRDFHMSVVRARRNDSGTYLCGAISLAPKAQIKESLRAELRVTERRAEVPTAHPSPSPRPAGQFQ
Sequence of hCD32b (human) (P31994 46-217): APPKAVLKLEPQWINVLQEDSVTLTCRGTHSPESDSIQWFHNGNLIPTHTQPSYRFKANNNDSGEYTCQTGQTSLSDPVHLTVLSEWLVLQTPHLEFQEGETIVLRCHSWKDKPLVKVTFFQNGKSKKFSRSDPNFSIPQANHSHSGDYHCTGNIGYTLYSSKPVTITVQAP
Sequence of cynomolgus monkey PD1 antigen (cynomolgus monkey) (B0LAJ3 entry or part of it limits assumed, form in doubt): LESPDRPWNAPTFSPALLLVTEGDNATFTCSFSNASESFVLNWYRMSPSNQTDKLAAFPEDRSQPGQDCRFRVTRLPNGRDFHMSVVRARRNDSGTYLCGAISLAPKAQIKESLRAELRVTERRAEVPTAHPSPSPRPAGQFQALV
Sequence of human CD64 receptor (hFcγRI) (human) (P12314 16-288 limits assumed): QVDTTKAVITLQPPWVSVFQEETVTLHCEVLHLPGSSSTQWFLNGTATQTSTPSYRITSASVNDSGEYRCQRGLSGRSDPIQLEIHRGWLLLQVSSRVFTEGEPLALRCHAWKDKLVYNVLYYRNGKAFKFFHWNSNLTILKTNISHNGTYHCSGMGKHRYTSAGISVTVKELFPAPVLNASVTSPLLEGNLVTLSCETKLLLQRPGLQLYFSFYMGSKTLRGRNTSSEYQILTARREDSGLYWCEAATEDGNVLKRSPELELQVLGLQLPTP
Sequence of hCD32aH (human) (P12318 36-218): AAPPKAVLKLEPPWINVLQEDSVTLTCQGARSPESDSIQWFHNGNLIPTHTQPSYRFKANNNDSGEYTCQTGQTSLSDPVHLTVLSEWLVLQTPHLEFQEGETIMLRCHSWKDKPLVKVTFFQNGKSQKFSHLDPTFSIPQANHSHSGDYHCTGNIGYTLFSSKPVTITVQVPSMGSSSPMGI
Sequence of murine PD1 antigen (murine) (Q02242 25-167 limits assumed): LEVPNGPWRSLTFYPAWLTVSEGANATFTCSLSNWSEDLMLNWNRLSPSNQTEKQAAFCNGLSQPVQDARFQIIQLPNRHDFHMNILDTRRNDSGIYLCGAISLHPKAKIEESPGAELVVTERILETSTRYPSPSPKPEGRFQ

OD Ratio variant/IgG1 WT [1] | OD 450 nm at 10 µg/ml [2] [OD 450 nm] | OD 450 nm at 0.5 µg/ml (hCD32b (human) [3]) [OD 450 nm] | OD Ratio variant/IgG1 WT [4] | OD Ratio variant/IgG1 WT (hCD32aR (human) [5]) | OD 450 nm at 0.2 µg/ml [6] [OD 450 nm] | OD 450 nm at 0.2 µg/ml [7] [OD 450 nm] | OD Ratio variant/IgG1 WT [8] | OD Ratio variant/IgG1 WT (hCD32aH (human) [9]) | OD 450 nm at 0.5 µg/ml (hCD16aV (human) [10]) [OD 450 nm] | OD 450 nm at 0.5 µg/ml (hCD32aR (human) [11]) [OD 450 nm] | OD Ratio variant/IgG1 WT (hCD16aV (human) [12]) | OD Ratio variant/IgG1 WT (hCD32b (human) [13]) | OD 450 nm at 0.5 µg/ml (hCD32aH (human) [14]) [OD 450 nm] | OD 450 nm at 0.2 µg/ml [15] [OD 450 nm] | OD Ratio variant/IgG1 WT [16] | OD 450 nm at 0.5 µg/ml [17] [OD 450 nm] | Substance
0.05 | 2.3 | 0.132 | 7.27 | 0.06 | 2.77 | 0.31 | 0.96 | 0.05 | 0.121 | 0.242 | 0.15 | 0.06 | 0.0798 | 2.29 | 1.06 | 0.0574 | IgG1_C6A_74Del294 nivolumab (V259I/Del294/N315D/N434Y) (antibody)
0.98 | 2.37 | 0.481 | 7.47 | 0.65 | 2.87 | 0.235 | 0.95 | 1.02 | 1.07 | 2.43 | 1.31 | 0.24 | 1.65 | 2.28 | 1.1 | 1.24 | IgG1_C6A_74 nivolumab (V259I/N315D/N434Y) (antibody)
– | 0.317 | – | – | – | – | – | – | – | – | – | – | – | – | – | – | 1.26 | IgG1_WT nivolumab (from UniProt P01857 1-330) (antibody)
– | 0.379 | – | – | – | – | – | – | – | – | – | – | – | – | – | – | 0.777 | IgG1_WT pembrolizumab (from UniProt P01857 1-330) (antibody)
